Results as given in patent US20190194304A1.

Molecular target: C3d, P01024
Assay: SPR, 0.5 µM FH with anti-FH.07 Fab′ (2 to 1 molar ratio) over immobilised C3d
Conditions: remark: other sources report otherwise

C3d, P01024, sequence (P01024 1002-1303 limits assumed): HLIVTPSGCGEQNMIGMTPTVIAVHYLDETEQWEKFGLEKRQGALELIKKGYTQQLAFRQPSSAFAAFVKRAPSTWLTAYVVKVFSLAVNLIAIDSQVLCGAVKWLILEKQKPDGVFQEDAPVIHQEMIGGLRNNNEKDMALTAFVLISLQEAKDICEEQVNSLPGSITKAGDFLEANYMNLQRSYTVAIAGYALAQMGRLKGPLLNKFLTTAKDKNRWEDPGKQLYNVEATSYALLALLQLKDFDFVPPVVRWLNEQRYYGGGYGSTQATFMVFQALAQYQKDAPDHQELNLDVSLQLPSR

B1: human factor H, P08603 19-1231 (protein, UniProt P08603 19-1231, looked up)
chain: EDCNELPPRRNTEILTGSWSDQTYPEGTQAIYKCRPGYRSLGNVIMVCRKGEWVALNPLRKCQKRPCGHPGDTPFGTFTLTGGNVFEYGVKAVYTCNEGYQLLGEINYRECDTDGWTNDIPICEVVKCLPVTAPENGKIVSSAMEPDREYHFGQAVRFVCNSGYKIEGDEEMHCSDDGFWSKEKPKCVEISCKSPDVINGSPISQKIIYKENERFQYKCNMGYEYSERGDAVCTESGWRPLPSCEEKSCDNPYIPNGDYSPLRIKHRTGDEITYQCRNGFYPATRGNTAKCTSTGWIPAPRCTLKPCDYPDIKHGGLYHENMRRPYFPVAVGKYYSYYCDEHFETPSGSYWDHIHCTQDGWSPAVPCLRKCYFPYLENGYNQNYGRKFVQGKSIDVACHPGYALPKAQTTVTCMENGWSPTPRCIRVKTCSKSSIDIENGFISESQYTYALKEKAKYQCKLGYVTADGETSGSITCGKDGWSAQPTCIKSCDIPVFMNARTKNDFTWFKLNDTLDYECHDGYESNTGSTTGSIVCGYNGWSDLPICYERECELPKIDVHLVPDRKKDQYKVGEVLKFSCKPGFTIVGPNSVQCYHFGLSPDLPICKEQVQSCGPPPELLNGNVKEKTKEEYGHSEVVEYYCNPRFLMKGPNKIQCVDGEWTTLPVCIVEESTCGDIPELEHGWAQLSSPPYYYGDSVEFNCSESFTMIGHRSITCIHGVWTQLPQCVAIDKLKKCKSSNLIILEEHLKNKKEFDHNSNIRYRCRGKEGWIHTVCINGRWDPEVNCSMAQIQLCPPPPQIPNSHNMTTTLNYRDGEKVSVLCQENYLIQEGEEITCKDGRWQSIPLCVEKIPCSQPPQIEHGTINSSRSSQESYAHGTKLSYTCEGGFRISEENETTCYMGKWSSPPQCEGLPCKSPPEISHGVVAHMSDSYQYGEEVTYKCFEGFGIDGPAIAKCLGEKWSHPPSCIKTDCLSLPSFENAIPMGEKKDVYKAGEQVTYTCATYYKMDGASNVTCINSRWTGRPTCRDTSCVNPPTVQNAYIVSRQMSKYPSGERVRYQCRSPYEMFGDEEVMCLNGNWTEPPQCKDSTGKCGPPPPIDNGDITSFPLSVYAPASSVEYQCQNLYQLEGNKRITCRNGQWSEPPKCLHPCVISREIMENYNIALRWTAKQKLYSRTGESVEFVCKRGYRLSSRSHTLRTTCWDGKLEYPTCAKR
With B1 the fold increase of the measured interactions (RU) with anti-FH.07 Fab′ against FH alone was > 2 fold.
